Consider four substances from US20100016697.

Series [1] deals with MT1-MMP specific fluorogenic substrate MCA-Pro-Leu-Ala-Cys(p-OmeBz)-Trp-Ala-Arg(Dpa)-NH2.
For series [2], the system named is LTBP-1 fluorogenic peptide SCJJ-1.

Sequence of MMP-9 catalytic domain (part of the MMP-2/-9 catalytic domain cocktail) (chain, as listed by the source): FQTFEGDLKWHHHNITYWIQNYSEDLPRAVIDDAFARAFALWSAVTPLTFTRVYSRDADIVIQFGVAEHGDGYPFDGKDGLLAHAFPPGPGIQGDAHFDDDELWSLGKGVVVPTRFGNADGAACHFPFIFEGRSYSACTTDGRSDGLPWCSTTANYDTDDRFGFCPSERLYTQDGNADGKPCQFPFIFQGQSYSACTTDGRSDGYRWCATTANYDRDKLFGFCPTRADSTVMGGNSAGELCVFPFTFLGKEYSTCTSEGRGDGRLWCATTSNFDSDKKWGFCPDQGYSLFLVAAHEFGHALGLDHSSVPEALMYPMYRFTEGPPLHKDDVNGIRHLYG
Sequence of MMP-8 (Calbiochem) (chain, as listed by the source): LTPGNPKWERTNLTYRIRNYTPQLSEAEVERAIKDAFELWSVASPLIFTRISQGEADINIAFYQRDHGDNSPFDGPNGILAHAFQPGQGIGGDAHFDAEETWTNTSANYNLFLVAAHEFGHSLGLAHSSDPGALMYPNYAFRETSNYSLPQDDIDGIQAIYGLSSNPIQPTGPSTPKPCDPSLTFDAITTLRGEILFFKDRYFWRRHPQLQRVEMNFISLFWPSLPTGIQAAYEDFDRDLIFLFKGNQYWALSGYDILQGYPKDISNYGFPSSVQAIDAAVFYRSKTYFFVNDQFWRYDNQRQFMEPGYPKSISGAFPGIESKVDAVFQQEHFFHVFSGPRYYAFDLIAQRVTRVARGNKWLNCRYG
Sequence of MMP-2 catalytic domain (part of the MMP-2/-9 catalytic domain cocktail) (chain, as listed by the source): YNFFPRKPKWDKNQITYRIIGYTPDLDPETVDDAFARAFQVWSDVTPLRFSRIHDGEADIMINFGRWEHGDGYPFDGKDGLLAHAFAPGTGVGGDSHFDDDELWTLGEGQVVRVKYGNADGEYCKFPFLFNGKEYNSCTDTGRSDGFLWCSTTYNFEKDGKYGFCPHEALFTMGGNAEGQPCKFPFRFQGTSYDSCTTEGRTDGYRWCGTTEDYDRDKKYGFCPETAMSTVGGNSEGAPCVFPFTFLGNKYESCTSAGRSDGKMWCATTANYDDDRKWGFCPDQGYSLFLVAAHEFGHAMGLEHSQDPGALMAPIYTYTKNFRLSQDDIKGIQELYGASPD
Sequence of MMP-9 (part of MMP-2/9, Chemicon) (chain, as listed by the source): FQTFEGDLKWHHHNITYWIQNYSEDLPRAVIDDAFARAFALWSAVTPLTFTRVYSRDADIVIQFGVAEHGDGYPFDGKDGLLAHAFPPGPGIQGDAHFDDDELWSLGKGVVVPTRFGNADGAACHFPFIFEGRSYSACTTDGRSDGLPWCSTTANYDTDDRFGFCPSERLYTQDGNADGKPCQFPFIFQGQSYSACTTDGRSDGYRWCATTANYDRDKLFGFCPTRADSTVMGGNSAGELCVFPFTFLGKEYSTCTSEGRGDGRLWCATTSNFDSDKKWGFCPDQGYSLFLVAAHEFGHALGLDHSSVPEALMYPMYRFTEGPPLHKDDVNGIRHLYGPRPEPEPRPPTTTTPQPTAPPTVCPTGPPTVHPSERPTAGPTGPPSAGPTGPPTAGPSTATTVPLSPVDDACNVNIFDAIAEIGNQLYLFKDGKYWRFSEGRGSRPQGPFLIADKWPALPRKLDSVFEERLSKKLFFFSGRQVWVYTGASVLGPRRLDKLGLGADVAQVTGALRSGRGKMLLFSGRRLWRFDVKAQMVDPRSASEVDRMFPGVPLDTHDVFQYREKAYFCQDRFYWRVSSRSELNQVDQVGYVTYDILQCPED

In the case of MMP-8 (Calbiochem), the “fluorescence emission (cleavage of the quenched fluorogenic substrate)” value in series [1] was “Incubation with MMP-2/9, MMP-8, or ADAM-10 and 17 alone failed to cause fluorescence emission from the MT1-MMP substrate”.

MMP-9 (part of MMP-2/9, Chemicon): the “fluorescence emission (cleavage of the quenched fluorogenic substrate)” value in series [1] was “Incubation with MMP-2/9, MMP-8, or ADAM-10 and 17 alone failed to cause fluorescence emission from the MT1-MMP substrate”.

In the case of “MMP-2 catalytic domain (part of the MMP-2/-9 catalytic domain cocktail)”, the “fluorescent emission from the LTBP-1 substrate” value in series [2] was “Incubation with an MMP-2/-9 catalytic domain cocktail (10 ug/mL) caused no fluorescent emission from the LTBP-1 substrate”.

On to “MMP-9 catalytic domain (part of the MMP-2/-9 catalytic domain cocktail)”, for which the “fluorescent emission from the LTBP-1 substrate” value in series [2] is “Incubation with an MMP-2/-9 catalytic domain cocktail (10 ug/mL) caused no fluorescent emission from the LTBP-1 substrate”.
